Experimental data as given in paper PMC6760808.
Read-outs that look alike come from different tables or passages of the source.

What was measured:
Cer-NPHP4-YC [1] = target: Cer-NPHP4-YC (UniProt O75161); assay: split reporter (BiFC, NanoBiT); BiFC: Cer-NPHP-YC co-expressed with YN-myc-Nup in NIH 3T3 cells in serum-free medium; fixed 48 hours post-transfection; YFP fluorescence at the base of the primary cilium, cells counted across two independent experiments
Cer-NPHP4-YC [2] = target: Cer-NPHP4-YC (UniProt O75161); assay: as above; remark: listed apart in the source

Chain of UniProt O75161 (O75161 whole entry): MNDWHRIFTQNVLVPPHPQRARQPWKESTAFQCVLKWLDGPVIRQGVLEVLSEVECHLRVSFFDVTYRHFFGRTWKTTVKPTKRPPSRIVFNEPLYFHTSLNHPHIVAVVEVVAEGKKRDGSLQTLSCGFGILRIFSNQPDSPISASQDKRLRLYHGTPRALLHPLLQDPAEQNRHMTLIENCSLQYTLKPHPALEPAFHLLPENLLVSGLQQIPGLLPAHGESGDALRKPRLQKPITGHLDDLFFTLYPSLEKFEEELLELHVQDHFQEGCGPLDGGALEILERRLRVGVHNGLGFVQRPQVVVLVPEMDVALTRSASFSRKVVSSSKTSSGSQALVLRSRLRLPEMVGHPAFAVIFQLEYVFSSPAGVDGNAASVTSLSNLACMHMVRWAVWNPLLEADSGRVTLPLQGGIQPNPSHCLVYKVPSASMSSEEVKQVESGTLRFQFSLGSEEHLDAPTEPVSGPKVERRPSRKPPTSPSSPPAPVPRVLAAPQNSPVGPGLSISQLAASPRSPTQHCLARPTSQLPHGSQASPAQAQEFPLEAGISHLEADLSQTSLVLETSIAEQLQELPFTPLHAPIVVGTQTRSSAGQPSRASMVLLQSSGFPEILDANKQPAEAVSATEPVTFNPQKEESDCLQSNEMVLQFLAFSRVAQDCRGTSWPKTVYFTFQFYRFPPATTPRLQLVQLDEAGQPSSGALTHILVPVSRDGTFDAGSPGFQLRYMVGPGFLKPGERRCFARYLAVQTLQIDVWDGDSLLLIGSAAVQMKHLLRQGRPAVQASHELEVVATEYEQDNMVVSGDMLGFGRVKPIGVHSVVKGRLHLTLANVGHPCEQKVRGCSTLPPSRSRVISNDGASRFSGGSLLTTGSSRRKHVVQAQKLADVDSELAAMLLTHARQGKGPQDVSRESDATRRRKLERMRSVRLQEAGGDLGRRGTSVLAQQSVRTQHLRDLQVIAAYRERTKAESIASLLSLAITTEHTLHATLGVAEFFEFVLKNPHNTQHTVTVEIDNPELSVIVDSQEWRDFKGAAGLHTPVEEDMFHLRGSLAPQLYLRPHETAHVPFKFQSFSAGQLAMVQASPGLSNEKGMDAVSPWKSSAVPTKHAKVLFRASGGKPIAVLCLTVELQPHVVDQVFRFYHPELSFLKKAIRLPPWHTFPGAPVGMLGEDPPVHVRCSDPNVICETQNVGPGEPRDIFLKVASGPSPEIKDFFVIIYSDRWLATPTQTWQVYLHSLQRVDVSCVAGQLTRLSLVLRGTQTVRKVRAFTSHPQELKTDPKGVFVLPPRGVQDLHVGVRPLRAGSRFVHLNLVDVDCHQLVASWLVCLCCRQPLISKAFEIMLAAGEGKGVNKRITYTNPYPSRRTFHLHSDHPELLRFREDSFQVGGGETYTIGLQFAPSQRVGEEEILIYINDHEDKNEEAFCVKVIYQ

With “YN-myc-Nup35 (from UniProt Q8NFH5 1-326) (natural protein)” the cells with BiFC signal (Cer-NPHP4-YC [1]) was 4 of 35 cells and the cells with BiFC signal (Cer-NPHP4-YC [2]) was 4 of 30 cells.
